Results taken from patent publication US20060035230A1 (BOYCE THOMPSON INSTITUTE FOR PLANT RESEARCH, published 2006).

Target: T1, PtiDC1Δ70 (AvrPtoB lacking the first 70 amino acids) (Pseudomonas syringae pv. tomato DC3000, UniProt Q8RSY1 71-553)
T1 construct: also called AvrPtoB prey PtiDC1Δ70; avrPtoB (PtiDC1Δ70)
T1 sequence: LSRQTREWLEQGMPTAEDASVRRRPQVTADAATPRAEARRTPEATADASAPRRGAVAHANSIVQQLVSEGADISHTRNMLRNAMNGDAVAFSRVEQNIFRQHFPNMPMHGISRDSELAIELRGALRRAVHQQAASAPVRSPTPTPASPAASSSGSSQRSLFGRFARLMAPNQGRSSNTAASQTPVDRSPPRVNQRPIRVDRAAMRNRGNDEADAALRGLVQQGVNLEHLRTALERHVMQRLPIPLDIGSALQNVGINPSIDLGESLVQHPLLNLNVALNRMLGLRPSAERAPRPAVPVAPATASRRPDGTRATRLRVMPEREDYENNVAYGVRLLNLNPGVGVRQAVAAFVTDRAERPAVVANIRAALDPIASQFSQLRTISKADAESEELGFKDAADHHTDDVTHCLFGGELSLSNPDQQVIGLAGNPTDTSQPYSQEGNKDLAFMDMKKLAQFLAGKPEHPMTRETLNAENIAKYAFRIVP
Experiment: LexA yeast two-hybrid, AvrPtoB prey PtiDC1Δ70 against kinase bait

B1: Pti1 kinase (enzyme)
chain: MSCFSCCDDDDMHRATDNGPFMAHNSAGNNGGQRATESAQRETQTVNIQPIAVPSIAVDELKDITDNFGSKALIGEGSYGRVYHGVLKSGRAAAIKKLDSSKQPDREFLAQVSMVSRLKDENVVELLGYCVDGGFRVLAYEYAPNGSLHDILHGRKGVKGAQPGPVLSWAQRVKIAVGAAKGLEYLHEKAQPHIIHRDIKSSNILLFDDDVAKIADFDLSNQAPDMAARLHSTRVLGTFGYHAPEYAMTGQLSSKSDVYSFGVVLLELLTGRKPVDHTLPRGQQSLVTWATPRLSEDKVKQCVDARLNTDYPPKAIAKMAAVAALCVQYEADFRPNMSIVVKALQPLLPRPVPS
notes: Bait fusion in pEG202
binding result: no binding
